In article PMC6804660, “Melatonin enhances salt tolerance by promoting MYB108A-mediated ethylene biosynthesis in grapevines”:

Experiments:
MYB108A (VviMYB108A) [1] = biological target: T1, MYB108A (VviMYB108A) (UniProt C3W4Q3 1-306); assay: EMSA; EMSA per Thermo Fisher EMSA Kit manual; buffer, salt, pH and temperature not stated; conditions: protein: recombinant; tags: His; label: biotin
T1 sequence: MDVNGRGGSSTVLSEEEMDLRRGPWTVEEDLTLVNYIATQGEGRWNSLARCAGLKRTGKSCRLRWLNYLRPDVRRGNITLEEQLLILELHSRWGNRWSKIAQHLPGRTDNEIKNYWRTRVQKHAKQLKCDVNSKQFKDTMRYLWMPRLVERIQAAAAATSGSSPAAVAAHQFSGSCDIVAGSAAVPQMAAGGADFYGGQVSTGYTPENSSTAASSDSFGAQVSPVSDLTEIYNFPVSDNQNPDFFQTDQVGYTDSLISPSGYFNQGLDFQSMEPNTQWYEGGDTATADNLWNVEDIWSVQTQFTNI

MYB108A (VviMYB108A) [2] = biological target: T1, MYB108A (VviMYB108A); assay: competition; increasing unlabeled competitor vs biotin MBS probe (EMSA); EMSA per Thermo Fisher EMSA Kit manual; buffer, salt, pH and temperature not stated; conditions: protein: recombinant; tags: His
MYB108A (VviMYB108A) [3] = biological target: T1, MYB108A (VviMYB108A); assay: competition; unlabeled mutant competitor vs biotin MBS probe (EMSA); EMSA per Thermo Fisher EMSA Kit manual; buffer, salt, pH and temperature not stated; conditions: protein: recombinant; tags: His

B1: ACS1 promoter MBS probe (dsDNA)
DNA 1: CATGTCCCTGTGAACCTAACGTAAGGCA
DNA 2: TGCCTTACGTTAGGTTCACAGGGACATG
Q: Does B1 bind (MYB108A (VviMYB108A) [1])?
A: binds

B2: unlabeled MBS competitor (dsDNA)
DNA 1: CATGTCCCTGTGAACCTAACGTAAGGCA
DNA 2: TGCCTTACGTTAGGTTCACAGGGACATG
Q: Does B2 bind (MYB108A (VviMYB108A) [2])?
A: binds

B3: mutant MBS competitor (mMBS) (dsDNA)
DNA 1: CATGTCCCTGTGTACATATCGTAAGGCA
DNA 2: TGCCTTACGATATGTACACAGGGACATG
Q: Does B3 bind (MYB108A (VviMYB108A) [3])?
A: no binding
